Experimental data published in US20250376519A1 (JIANGSU HENGRUI PHARMACEUTICALS, published 2025).

T1: cynomolgus monkey DLL3 on CHO-s cells (cynomolgus monkey, UniProt Q9NYJ7 27-618 (human entry))
T1 construct: also called cynoDLL3/CHO-s; CynoDLL3/CHO-S
T1 chain: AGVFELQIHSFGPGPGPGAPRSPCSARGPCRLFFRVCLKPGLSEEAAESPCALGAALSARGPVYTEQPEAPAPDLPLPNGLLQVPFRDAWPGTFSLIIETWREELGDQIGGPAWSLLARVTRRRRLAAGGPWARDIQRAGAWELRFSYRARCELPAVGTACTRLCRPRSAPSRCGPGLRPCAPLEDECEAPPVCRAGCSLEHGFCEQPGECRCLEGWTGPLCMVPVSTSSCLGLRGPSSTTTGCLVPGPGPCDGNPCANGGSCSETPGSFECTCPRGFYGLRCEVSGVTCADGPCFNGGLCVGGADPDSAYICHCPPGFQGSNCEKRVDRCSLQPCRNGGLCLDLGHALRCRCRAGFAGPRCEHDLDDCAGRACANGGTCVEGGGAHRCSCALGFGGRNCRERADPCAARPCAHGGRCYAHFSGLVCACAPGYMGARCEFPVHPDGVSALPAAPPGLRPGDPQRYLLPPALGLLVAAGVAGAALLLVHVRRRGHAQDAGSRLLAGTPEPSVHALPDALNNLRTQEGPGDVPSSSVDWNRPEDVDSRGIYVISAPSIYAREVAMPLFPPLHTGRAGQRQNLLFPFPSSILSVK

T2: human DLL3 on cells (human, UniProt Q9NYJ7 27-618)
T2 construct: Endogenous on H1184 and SHP77; Cell line is named under assay; also called H1184; DLL3/H82
T2 sequence: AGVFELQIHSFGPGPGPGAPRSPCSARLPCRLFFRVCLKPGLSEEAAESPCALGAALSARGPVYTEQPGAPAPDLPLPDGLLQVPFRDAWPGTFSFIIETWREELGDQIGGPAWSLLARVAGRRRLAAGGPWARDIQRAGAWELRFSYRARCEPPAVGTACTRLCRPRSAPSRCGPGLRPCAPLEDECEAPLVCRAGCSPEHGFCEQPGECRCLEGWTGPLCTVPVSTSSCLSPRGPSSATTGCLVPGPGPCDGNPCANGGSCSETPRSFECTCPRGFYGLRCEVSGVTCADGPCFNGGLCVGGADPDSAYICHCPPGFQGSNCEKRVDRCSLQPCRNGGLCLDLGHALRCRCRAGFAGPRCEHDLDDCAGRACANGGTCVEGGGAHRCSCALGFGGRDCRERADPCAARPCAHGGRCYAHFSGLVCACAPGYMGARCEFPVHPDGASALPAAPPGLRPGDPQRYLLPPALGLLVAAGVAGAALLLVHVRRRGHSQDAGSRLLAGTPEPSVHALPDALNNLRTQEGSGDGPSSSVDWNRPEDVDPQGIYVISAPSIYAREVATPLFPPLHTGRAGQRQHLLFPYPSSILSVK

B1: hu110-S107E-hot Ig (bispecific antibody)
light 1: NIVMTQSPKSLAVSLGERATINCKASENVGIFVSWYQQKPGQSPKLLIYGASNRYTGVPDRFSGSGSATDFTLTISSLQAEDVADYYCGQSHSYPLTFGQGTKLEIKGGGGSSGAPRFLTRPKASVVSVGKDATLSCQIVGNPFPQVSWEKDKQPVTAGVRFRLAQDGDLYRLKILDLQLSDSGQYVCRARNAHGEAFACLGLQVDAEA
heavy 1: EVQLVQSGAEVKKPGASVKVSCKTSGYTFTDYYMNWVRQAPGQSLEWMGIINPYQGGTSYTQKFKGRVTITVDKSASTAYMELSSLRSEDTAVYYCARHFYDSSYLTYSTMDYWGQGTTVTVSSGGGGSGIPPKIECLPIDISIDEGKVLTVASAFTGEPTPEVTWSTGGRKIHSQEQGRFHIENTDDSTTLTIKDVQKQDGGLYTLTLRNEFGSDSATVNIHIRSIDKTHTCPPCPAPEAAGGPSVFLFPPKPKDTLMISRTPEVTCVVVDVSHEDPEVKFNWYVDGVEVHNAKTKPREEQYNSTYRVVSVLTVLHQDWLNGKEYKCKVSNKALPAPIEKTISKAKGQPREPQVCTLPPSREEMTKNQVSLSCAVKGFYPSDIAVEWESNGQPENNYKTTPPVLDSDGSFFLVSKLTVDKSRWQQGNVFSCSVMHEALHNHYTQKSLSLSPGK
heavy 2: not shown
light 2: not shown
notes: Format 1 (Hot-Ig, Titin/Obscurin-replaced DLL3 Fab), DLL3 x CD3
B2: hu110-I2C-hot Ig (bispecific antibody)
light 1: NIVMTQSPKSLAVSLGERATINCKASENVGIFVSWYQQKPGQSPKLLIYGASNRYTGVPDRFSGSGSATDFTLTISSLQAEDVADYYCGQSHSYPLTFGQGTKLEIKGGGGSSGAPRFLTRPKASVVSVGKDATLSCQIVGNPFPQVSWEKDKQPVTAGVRFRLAQDGDLYRLKILDLQLSDSGQYVCRARNAHGEAFACLGLQVDAEA
heavy 1: EVQLVQSGAEVKKPGASVKVSCKTSGYTFTDYYMNWVRQAPGQSLEWMGIINPYQGGTSYTQKFKGRVTITVDKSASTAYMELSSLRSEDTAVYYCARHFYDSSYLTYSTMDYWGQGTTVTVSSGGGGSGIPPKIECLPIDISIDEGKVLTVASAFTGEPTPEVTWSTGGRKIHSQEQGRFHIENTDDSTTLTIKDVQKQDGGLYTLTLRNEFGSDSATVNIHIRSIDKTHTCPPCPAPEAAGGPSVFLFPPKPKDTLMISRTPEVTCVVVDVSHEDPEVKFNWYVDGVEVHNAKTKPREEQYNSTYRVVSVLTVLHQDWLNGKEYKCKVSNKALPAPIEKTISKAKGQPREPQVCTLPPSREEMTKNQVSLSCAVKGFYPSDIAVEWESNGQPENNYKTTPPVLDSDGSFFLVSKLTVDKSRWQQGNVFSCSVMHEALHNHYTQKSLSLSPGK
heavy 2: not shown
light 2: not shown
notes: as for B1
B3: hu110-I2C-Y body (bispecific antibody)
light: NIVMTQSPKSLAVSLGERATINCKASENVGIFVSWYQQKPGQSPKLLIYGASNRYTGVPDRFSGSGSATDFTLTISSLQAEDVADYYCGQSHSYPLTFGQGTKLEIKRTVAAPSVFIFPPSDEQLKSGTASVVCLLNNFYPREAKVQWKVDNALQSGNSQESVTEQDSKDSTYSLSSTLTLSKADYEKHKVYACEVTHQGLSSPVTKSFNRGEC
heavy: EVQLVQSGAEVKKPGASVKVSCKTSGYTFTDYYMNWVRQAPGQSLEWMGIINPYQGGTSYTQKFKGRVTITVDKSASTAYMELSSLRSEDTAVYYCARHFYDSSYLTYSTMDYWGQGTTVTVSSASTKGPSVFPLAPSSKSTSGGTAALGCLVKDYFPEPVTVSWNSGALTSGVHTFPAVLQSSGLYSLSSVVTVPSSSLGTQTYICNVNHKPSNTKVDKKVEPKSCDKTHTCPPCPAPEAAGGPSVFLFPPKPKDTLMISRTPEVTCVVVDVSHEDPEVKFNWYVDGVEVHNAKTKPREEQYNSTYRVVSVLTVLHQDWLNGKEYKCKVSNKALPAPIEKTISKAKGQPREPQVCTLPPSREEMTKNQVSLSCAVKGFYPSDIAVEWESNGQPENNYKTTPPVLDSDGSFFLVSKLTVDKSRWQQGNVFSCSVMHEALHNHYTQKSLSLSPGK
chain: not shown
notes: Format 2 (Y body: DLL3 Fab-Fc hole + CD3 scFv-Fc knob)

Legend:
[1] = molecular target: T3, hDLL3 (ECD)-strep twin, biotinylated (human, UniProt Q9NYJ7 27-492, biotinylated); experiment: ELISA, biotinylated antigen on streptavidin
T3 construct: The entry carries a signal peptide (marked only by a dotted line); also called Biotinylated DLL3 antigen; human DLL3 protein
Description: (§1) Streptavidin (abcam, ab136200, 1 μg/mL) was plated at 100 μL/well, and the plates were incubated overnight at 4° C. The plates were washed 3 times with 250 μL of PBST solution (PBS containing 0.1% Tween 20) per well. The plates were blocked with 250 μL of 5% milk per well at 37° C. for 2 h. The plates were washed 3 times with 250 μL of PBST solution per well. Biotinylated DLL3 antigen (1 μg/mL) (SEQ ID NO: 9) was added, and the plates were incubated at 37° C. for 1 h. The plates were washed 3 times with 250 μL of PBST solution per well. Antibodies (maximum concentration 400 nM, serially diluted 4-fold) were formulated, and incubation was performed at 37° C. for 1 h. The plates were washed 6 times with 250 μL of PBST solution per well. […] The plates were washed 6 times with 250 μL of PBST solution per well. TMB (KPL, 5120-0077) substrate solution was added at 100 μL/well, and color development was performed at room temperature for 5-10 min. 1 M H₂SO₄ was added at 100 μL/well to stop the color development, and microplate reader (Molecular Devices, VERSA max) readings at 450 nm were taken.

DLL4 (ACRO, DL4-H5227) = molecular target: T4, DLL4 (ACRO, DL4-H5227) (human, UniProt Q9NR61 27-524); experiment: ELISA, DLL4 coated at 1 µg/mL, detection with anti-human IgG (H+L)-HRP, OD450
T4 construct: Bought; also called human DLL4
Description: as §1, with “DLL1 (ACRO, DL1-H52H8, 1” for “Streptavidin (abcam, ab136200, 1”, “μg/mL) and DLL4 (ACRO, DL4-H5227, 1 μg/mL) were” for “μg/mL) was”, “well. Test antibodies (maximum concentration 100 nM, serially diluted 4-fold) were” for “well. Biotinylated DLL3 antigen (1 μg/mL) (SEQ ID NO: 9) was”, “incubated” for “incubated at 37° C. for 1 h. The plates were washed 3 times with 250 μL of PBST solution per well. Antibodies (maximum concentration 400 nM, serially diluted 4-fold) were formulated, and incubation was performed”

[2] = molecular target: T1, cynomolgus monkey DLL3 on CHO-s cells; experiment: flow cytometry, cynoDLL3/CHO-s cells
Description: (§2) The plates were centrifuged at 300 g for 5 min, and the supernatant was removed. Different concentrations of test antibodies were added at 100 μL/well. The plates were incubated in the dark in a refrigerator at 4° C. for 1 h. After 3 centrifugal washes at 300 g, working concentrations of APC anti-human IgG Fc (BioLegend, 410712) or PE F(ab′)2-goat anti-human IgG (invitrogen, H10104) were added. The plates were incubated in the dark in a refrigerator at 4° C. for 40 min. After 3 centrifugal washes at 300 g, the geometric mean fluorescence intensity was measured on an Invitrogen flow cytometer, and the EC50 values for the binding of the antibodies to DLL3-expressing cells were calculated.

human DLL3 on cells = molecular target: T2, human DLL3 on cells; experiment: flow cytometry, hDLL3/CHO-s cells
Description: as §2

CD3 on Jurkat cells = molecular target: T5, CD3 on Jurkat cells (human); experiment: flow cytometry, Jurkat cells
T5 construct: whole, on cells; also called CD3-expressing Jurkat cells
T5 sequence (P07766 23-207, chain 1 of 4): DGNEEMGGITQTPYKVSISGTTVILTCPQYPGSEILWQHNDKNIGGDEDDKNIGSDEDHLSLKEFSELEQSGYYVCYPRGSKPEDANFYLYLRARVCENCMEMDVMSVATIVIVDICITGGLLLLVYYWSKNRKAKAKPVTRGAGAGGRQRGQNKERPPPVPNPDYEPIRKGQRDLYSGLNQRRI
T5 sequence (P09693 23-182, chain 2 of 4, further chain): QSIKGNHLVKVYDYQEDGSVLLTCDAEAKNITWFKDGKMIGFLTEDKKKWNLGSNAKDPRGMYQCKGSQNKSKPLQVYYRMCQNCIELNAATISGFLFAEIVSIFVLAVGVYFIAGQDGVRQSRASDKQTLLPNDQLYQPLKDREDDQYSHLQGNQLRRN
T5 sequence (P04234 22-171, chain 3 of 4, further chain): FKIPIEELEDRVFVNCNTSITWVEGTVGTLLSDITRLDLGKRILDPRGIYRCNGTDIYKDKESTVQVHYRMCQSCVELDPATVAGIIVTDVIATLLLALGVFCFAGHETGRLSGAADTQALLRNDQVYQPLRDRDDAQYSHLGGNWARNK
T5 sequence (P20963 22-164, chain 4 of 4, further chain): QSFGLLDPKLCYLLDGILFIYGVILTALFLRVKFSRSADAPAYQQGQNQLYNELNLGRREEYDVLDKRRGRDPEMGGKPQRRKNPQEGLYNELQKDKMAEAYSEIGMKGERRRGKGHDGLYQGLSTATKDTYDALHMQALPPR

T4 sequence (Q9NR61 27-524 limits assumed): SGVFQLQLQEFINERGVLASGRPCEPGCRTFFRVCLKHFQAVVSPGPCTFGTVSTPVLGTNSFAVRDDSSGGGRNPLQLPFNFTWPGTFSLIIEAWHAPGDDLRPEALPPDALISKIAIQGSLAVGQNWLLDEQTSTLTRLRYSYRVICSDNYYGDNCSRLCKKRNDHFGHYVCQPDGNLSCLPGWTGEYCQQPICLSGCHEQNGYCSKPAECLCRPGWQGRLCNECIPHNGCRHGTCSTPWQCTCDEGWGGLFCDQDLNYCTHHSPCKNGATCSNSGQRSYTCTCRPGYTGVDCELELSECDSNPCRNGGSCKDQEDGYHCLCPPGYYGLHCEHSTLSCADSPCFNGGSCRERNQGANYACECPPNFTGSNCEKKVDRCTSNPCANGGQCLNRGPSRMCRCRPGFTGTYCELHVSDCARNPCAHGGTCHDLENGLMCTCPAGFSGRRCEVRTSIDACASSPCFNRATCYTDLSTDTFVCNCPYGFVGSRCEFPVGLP

Binder	EC50 [1]	binding result (DLL4 (ACRO, DL4-H5227))	EC50 [2]	EC50 (human DLL3 on cells)	EC50 (CD3 on Jurkat cells)
B1	0.11 nM	no binding (tested: log[antibody, nM] 2 (100 nM))	5.01 nM	5.07 nM	7.74 nM
B2	0.08 nM	no binding (tested: log[antibody, nM] 2 (100 nM))	4.92 nM	4.91 nM	3.27 nM
B3	0.07 nM	no binding (tested: log[antibody, nM] 2 (100 nM))	4.92 nM	4.52 nM	3.83 nM
